One block for each binder: values may come before it.
Tests used:
[1] = target: fluoresceinated H3(1-20) K9me2 peptide, P68431; experiment: fluorescence polarisation; fluoresceinated H3(1-20) K9me1 or K9me2 peptide at 150 nM, enzyme titrated; 100 mM Tris pH 8, 100 mM KCl, 1 mM MgCl2, 20 μM ZnSO4, 10 mM BME, 0.1% NP-40
[2] = target: unmethylated mononucleosome (H3K9me0), 147 bp 601 DNA 5'-fluorescein-labeled; experiment: fluorescence polarisation; core mononucleosomes (147 bp 601 DNA, 5' fluorescein) at 150 nM, enzyme titrated; 100 mM Tris pH 8, 100 mM KCl, 1 mM MgCl2, 20 μM ZnSO4, 10 mM BME, 0.1% NP-40
[3] = target: G9a ANK-SET, tags removed; experiment: SEC-MALS; His and MBP tags removed; injected at 10 μM, Shodex KW804 column, 0.4 ml per minute
[4] = target: N-terminally 6xHis-tagged G9a ANK-SET; experiment: pull-down; His:G9a coexpressed with MBP:G9a or MBP:GLP in E. coli; sequential cobalt and amylose resin purification; SyPRO Red stained bands quantified

B4: G9a-GLP ANK-SET heterodimer (complex)
chain 1: DAPGRADTSQPSARMRGHGEPRRPPCDPLADTIDSSGPSLTLPNGGCLSAVGLPPGPGREALEKALVIQESERRKKLRFHPRQLYLSVKQGELQKVILMLLDNLDPNFQSDQQSKRTPLHAAAQKGSVEICHVLLQAGANINAVDKQQRTPLMEAVVNNHLEVARYMVQLGGCVYSKEEDGSTCLHHAAKIGNLEMVSLLLSTGQVDVNAQDSGGWTPIIWAAEHKHIDVIRMLLTRGADVTLTDNEENICLHWASFTGSAAIAEVLLNAQCDLHAVNYHGDTPLHIAARESYHDCVLLFLSRGANPELRNKEGDTAWDLTPERSDVWFALQLNRKLRLGVGNRAVRTEKIICRDVARGYENVPIPCVNGVDGEPCPEDYKYISENCETSTMNIDRNITHLQHCTCVDDCSSSNCLCGQLSIRCWYDKDGRLLQEFNKIEPPLIFECNQACSCWRSCKNRVVQSGIKVRLQLYRTAKMGWGVRALQTIPQGTFICEYVGELISDAEADVREDDSYLFDLDNKDGEVYCIDARYYGNISRFINHLCDPNIIPVRVFMLHQDLRFPRIAFFSSRDIRTGEELGFDYGDRFWDIKSKYFTCQCGSEKCKHSAEAIALEQSRLARLDPHPELLPDLSSLPPINT
chain 2: QEKSLAAEGRADTTTGSIAGAPEDERSQSTAPQAPECFDPAGPAGLVRPTSGLSQGPGKETLESALIALDSEKPKKLRFHPKQLYFSARQGELQKVLLMLVDGIDPNFKMEHQSKRSPLHAAAEAGHVDICHMLVQAGANIDTCSEDQRTPLMEAAENNHLDAVKYLIKAGAQVDPKDAEGSTCLHLAAKKGHYDVVQYLLSNGQMDVNCQDDGGWTPMIWATEYKHVELVKLLLSKGSDINIRDNEENICLHWAAFSGCVDIAEILLAAKCDLHAVNIHGDSPLHIAARENRYDCVVLFLSRDSDVTLKNKEGETPLQCASLSSQVWSALQMSKALRDSAPDKPVAVEKTVSRDIARGYERIPIPCVNAVDSELCPTNYKYVSQNCVTSPMNIDRNITHLQYCVCVDDCSSSTCMCGQLSMRCWYDKDGRLLPEFNMAEPPLIFECNHACSCWRNCRNRVVQNGLRARLQLYRTQDMGWGVRSLQDIPLGTFVCEYVGELISDSEADVREEDSYLFDLDNKDGEVYCIDARFYGNVSRFINHHCEPNLVPVRVFMSHQDLRFPRIAFFSTRLIQAGEQLGFDYGERFWDVKGKLFSCRCGSSKCRHSSAALAQRQASAAQEPQENGLPDTSSAAAADPL
modifications: not checked
Kd [2]: 6 to 7 µM

B5: G9a ANK-SET homodimer (complex)
chain: B4 chain 1
modifications: not checked
Kd [2]: 6 to 7 µM

B6: N-terminally Maltose-Binding Protein tagged G9a ANK-SET (domain or fragment)
chain: B4 chain 1
stoichiometry N (MBP protein per His:G9a) [4]: 1

Second part, the binder after the results:

fold reduction of binding (reference not clearly named) [1]: 12.5 times | Kd [2]: 26.3 µM
B1: GLP ANK-SET homodimer (complex)
chain: B4 chain 2
modifications: not checked

stoichiometry N [3]: 1 GLP per G9a
B2: GLP ANK-SET, tags removed (domain or fragment)
chain: B4 chain 2
modifications: not checked

stoichiometry N (MBP protein per His:G9a) [4]: 1
B3: N-terminally Maltose-Binding Protein tagged GLP ANK-SET (domain or fragment)
chain: B4 chain 2
modifications: not checked

Source: paper PMC8564726, “Heterodimerization of H3K9 histone methyltransferases G9a and GLP activates methyl reading and writing capabilities” (The Journal of Biological Chemistry, 2021)
